The source of these data is patent publication US20260049138A1 (Chugai, published 2026).

The target in the test is T1, CD3ε homodimer protein (human, UniProt P07766 23-126, limits assumed, sulfo-tag or biotin label in the ECL assays; amine-coupled to the chip in SPR).
T1 construct: also called human CD3ε homodimer protein; CD3 (CD3ε)
The test can be described thus: SPR Biacore T200; CD3ε homodimer on CM4 chip. (SPR reads the build-up and loss of mass on a sensor chip optically.)
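Further: Single-residue variant antibodies injected as analyte over CD3ε homodimer immobilized by amine coupling, run at 25 °C in HBS-EP+ buffer.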

T1 sequence (P07766 23-126 limits assumed): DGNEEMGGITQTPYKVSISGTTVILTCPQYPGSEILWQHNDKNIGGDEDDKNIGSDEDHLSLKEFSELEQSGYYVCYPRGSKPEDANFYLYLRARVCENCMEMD

B1: CE115HA000 F29V one-arm antibody (antibody, human IgG1, kappa, L234A L235A, N297A, name in Kabat numbering)
heavy: QVQLVESGGGVVQPGRSLRLSCAASGFTVSNAWMHWVRQAPGKGLEWVAQIKAKSNNYATYYAESVKGRFTISRDDSKNSLYLQMNSLKTEDTAVYYCRYVHYGAYYGVDAWGQGTTVTVSSASTKGPSVFPLAPSSKSTSGGTAALGCLVKDYFPEPVTVSWNSGALTSGVHTFPAVLQSSGLYSLSSVVTVPSSSLGTQTYICNVNHKPSNTKVDKKVEPKSCDKTHTCPPCPAPEAAGGPSVFLFPPKPKDTLMISRTPEVTCVVVDVSHEDPEVKFNWYVDGVEVHNAKTKPREEQYASTYRVVSVLTVLHQDWLNGKEYKCKVSNKALPAPIEKTISKAKGQPREPQVYTLPPSRCELTKNQVSLSCAVKGFYPSDIAVEWESNGQPENNYKTTPPVLDSDGSFFLVSKLTVDKSRWQQGNVFSCSVMHEALHNHYTQKSLSLSPDYKDDDDK
chain: EPKSSDKTHTCPPCPAPELLGGPSVFLFPPKPKDTLMISRTPEVTCVVVDVSHEDPEVKFNWYVDGVEVHNAKTKPREEQYNSTYRVVSVLTVLHQDWLNGKEYKCKVSNKALPAPIEKTISKAKGQPREPQVCTLPPSRDELTKNQVSLWCLVKGFYPSDIAVEWESNGQPENNYKTTPPVLDSDGSFFLYSKLTVDKSRWQQGNVFSCSVMHEALHNRYTQKSLSLSP
light: DIVMTQSPLSLPVTPGEPASISCRSSQSLVHSNRNTYLHWYQQKPGQAPRLLIYKVSNRFSGVPDRFSGSGSGTDFTLKISRVEAEDVGVYYCGQGTQVPYTFGQGTKLEIKRTVAAPSVFIFPPSDEQLKSGTASVVCLLNNFYPREAKVQWKVDNALQSGNSQESVTEQDSKDSTYSLSSTLTLSKADYEKHKVYACEVTHQGLSSPVTKSFNRGEC
B1: the “ratio of amounts bound Z=Y/X (altered form / CE115HA000)” value was 0.36.

B2: CE115HA000 G65D one-arm antibody (antibody, human IgG1, kappa, L234A L235A, N297A, name in Kabat numbering)
heavy: QVQLVESGGGVVQPGRSLRLSCAASGFTFSNAWMHWVRQAPGKGLEWVAQIKAKSNNYATYYAESVKDRFTISRDDSKNSLYLQMNSLKTEDTAVYYCRYVHYGAYYGVDAWGQGTTVTVSSASTKGPSVFPLAPSSKSTSGGTAALGCLVKDYFPEPVTVSWNSGALTSGVHTFPAVLQSSGLYSLSSVVTVPSSSLGTQTYICNVNHKPSNTKVDKKVEPKSCDKTHTCPPCPAPEAAGGPSVFLFPPKPKDTLMISRTPEVTCVVVDVSHEDPEVKFNWYVDGVEVHNAKTKPREEQYASTYRVVSVLTVLHQDWLNGKEYKCKVSNKALPAPIEKTISKAKGQPREPQVYTLPPSRCELTKNQVSLSCAVKGFYPSDIAVEWESNGQPENNYKTTPPVLDSDGSFFLVSKLTVDKSRWQQGNVFSCSVMHEALHNHYTQKSLSLSPDYKDDDDK
chain: EPKSSDKTHTCPPCPAPELLGGPSVFLFPPKPKDTLMISRTPEVTCVVVDVSHEDPEVKFNWYVDGVEVHNAKTKPREEQYNSTYRVVSVLTVLHQDWLNGKEYKCKVSNKALPAPIEKTISKAKGQPREPQVCTLPPSRDELTKNQVSLWCLVKGFYPSDIAVEWESNGQPENNYKTTPPVLDSDGSFFLYSKLTVDKSRWQQGNVFSCSVMHEALHNRYTQKSLSLSP
light: DIVMTQSPLSLPVTPGEPASISCRSSQSLVHSNRNTYLHWYQQKPGQAPRLLIYKVSNRFSGVPDRFSGSGSGTDFTLKISRVEAEDVGVYYCGQGTQVPYTFGQGTKLEIKRTVAAPSVFIFPPSDEQLKSGTASVVCLLNNFYPREAKVQWKVDNALQSGNSQESVTEQDSKDSTYSLSSTLTLSKADYEKHKVYACEVTHQGLSSPVTKSFNRGEC
For B2, the “ratio of amounts bound Z=Y/X (altered form / CE115HA000)” value came to 0.76.
